The chains are these.
B1: Catenin alpha-3 (Homo sapiens), Q9UI47-1 (parent)
chain: MSAETPITLNIDPQDLQVQTFTVEKLLEPLIIQVTTLVNCPQNPSSRKKGRSKRASVLLASVEEATWNLLDKGEKIAQEATVLKDELTASLEEVRKESEALKVSAERFTDDPCFLPKREAVVQAARALLAAVTRLLILADMIDVMCLLQHVSAFQRTFESLKNVANKSDLQKTYQKLGKELENLDYLAFKRQQDLKSPNQRDEIAGARASLKENSPLLHSICSACLEHSDVASLKASKDTVCEEIQNALNVISNASQGIQNMTTPPEPQAATLGSALDELENLIVLNPLTVTEEEIRPSLEKRLEAIISGAALLADSSCTRDLHRERIIAECNAIRQALQDLLSEYMNNAGKKERSNTLNIALDNMCKKTRDLRRQLRKAIIDHVSDSFLDTTVPLLVLIEAAKNGREKEIKEYAAIFHEHTSRLVEVANLACSMSTNEDGIKIVKIAANHLETLCPQIINAALALAARPKSQAVKNTMEMYKRTWENHIHVLTEAVDDITSIDDFLAVSESHILEDVNKCIIALRDQDADNLDRAAGAIRGRAARVAHIVTGEMDSYEPGAYTEGVMRNVNFLTSTVIPEFVTQVNVALEALSKSSLNVLDDNQFVDISKKIYDTIHDIRCSVMMIRTPEELEDVSDLEEEHEVRSHTSIQTEGKTDRAKMTQLPEAEKEKIAEQVADFKKVKSKLDAEIEIWDDTSNDIIVLAKNMCMIMMEMTDFTRGKGPLKHTTDVIYAAKMISESGSRMDVLARQIANQCPDPSCKQDLLAYLEQIKFYSHQLKICSQVKAEIQNLGGELIMSALDSVTSLIQAAKNLMNAVVQTVKMSYIASTKIIRIQSPAGPRHPVVMWRMKAPAKKPLIKREKPEETCAAVRRGSAKKKIHPLQVMSEFRGRQIY
partner: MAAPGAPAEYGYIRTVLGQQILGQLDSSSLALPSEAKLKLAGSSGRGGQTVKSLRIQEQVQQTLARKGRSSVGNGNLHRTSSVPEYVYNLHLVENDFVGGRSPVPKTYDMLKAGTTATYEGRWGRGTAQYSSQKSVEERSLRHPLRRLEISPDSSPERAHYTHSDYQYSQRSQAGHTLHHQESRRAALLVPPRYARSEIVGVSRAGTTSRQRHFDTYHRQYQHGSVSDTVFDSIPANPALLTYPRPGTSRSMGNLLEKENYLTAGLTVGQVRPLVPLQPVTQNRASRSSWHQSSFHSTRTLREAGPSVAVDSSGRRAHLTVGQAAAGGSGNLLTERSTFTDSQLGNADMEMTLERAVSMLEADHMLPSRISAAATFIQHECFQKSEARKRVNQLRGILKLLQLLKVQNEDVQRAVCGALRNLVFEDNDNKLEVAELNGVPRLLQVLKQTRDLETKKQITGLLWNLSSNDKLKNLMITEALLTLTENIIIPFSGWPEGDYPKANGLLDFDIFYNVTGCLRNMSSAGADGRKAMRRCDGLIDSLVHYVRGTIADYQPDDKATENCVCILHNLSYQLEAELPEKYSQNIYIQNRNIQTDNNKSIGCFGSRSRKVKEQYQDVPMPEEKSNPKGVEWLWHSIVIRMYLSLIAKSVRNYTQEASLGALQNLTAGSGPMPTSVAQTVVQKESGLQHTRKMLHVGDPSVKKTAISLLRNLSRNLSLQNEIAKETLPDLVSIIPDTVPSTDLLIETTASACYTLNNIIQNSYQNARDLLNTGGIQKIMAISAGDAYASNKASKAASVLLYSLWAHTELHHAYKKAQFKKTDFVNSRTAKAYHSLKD
B2: Catenin alpha-3 (Homo sapiens), Q9UI47-1 (parent)
chain: B1 chain
partner: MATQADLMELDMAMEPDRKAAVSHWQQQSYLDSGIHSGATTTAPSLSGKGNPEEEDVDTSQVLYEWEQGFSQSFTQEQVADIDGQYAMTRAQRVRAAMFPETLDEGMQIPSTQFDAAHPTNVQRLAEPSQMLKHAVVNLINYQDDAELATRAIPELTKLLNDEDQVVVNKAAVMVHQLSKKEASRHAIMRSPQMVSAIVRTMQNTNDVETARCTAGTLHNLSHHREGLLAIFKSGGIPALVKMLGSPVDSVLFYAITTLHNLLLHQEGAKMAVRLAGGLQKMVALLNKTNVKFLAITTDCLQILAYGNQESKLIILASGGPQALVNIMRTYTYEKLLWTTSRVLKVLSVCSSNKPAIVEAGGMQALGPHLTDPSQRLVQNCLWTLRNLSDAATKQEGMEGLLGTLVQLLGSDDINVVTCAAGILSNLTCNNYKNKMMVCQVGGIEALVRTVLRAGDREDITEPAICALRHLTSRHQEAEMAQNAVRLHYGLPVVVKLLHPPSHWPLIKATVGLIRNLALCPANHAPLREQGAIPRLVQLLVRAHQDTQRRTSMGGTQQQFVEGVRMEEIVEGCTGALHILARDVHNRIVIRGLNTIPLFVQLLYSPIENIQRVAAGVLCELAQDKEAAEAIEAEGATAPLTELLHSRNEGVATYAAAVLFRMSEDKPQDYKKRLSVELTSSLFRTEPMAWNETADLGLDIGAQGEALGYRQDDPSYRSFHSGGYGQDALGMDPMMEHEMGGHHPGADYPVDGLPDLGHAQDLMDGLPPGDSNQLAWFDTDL
B3: Catenin alpha-3 (Homo sapiens), Q9UI47-1 (parent)
chain: B1 chain
B4: Catenin alpha-3 (Homo sapiens), Q9UI47-1 (parent)
chain: B1 chain
partner: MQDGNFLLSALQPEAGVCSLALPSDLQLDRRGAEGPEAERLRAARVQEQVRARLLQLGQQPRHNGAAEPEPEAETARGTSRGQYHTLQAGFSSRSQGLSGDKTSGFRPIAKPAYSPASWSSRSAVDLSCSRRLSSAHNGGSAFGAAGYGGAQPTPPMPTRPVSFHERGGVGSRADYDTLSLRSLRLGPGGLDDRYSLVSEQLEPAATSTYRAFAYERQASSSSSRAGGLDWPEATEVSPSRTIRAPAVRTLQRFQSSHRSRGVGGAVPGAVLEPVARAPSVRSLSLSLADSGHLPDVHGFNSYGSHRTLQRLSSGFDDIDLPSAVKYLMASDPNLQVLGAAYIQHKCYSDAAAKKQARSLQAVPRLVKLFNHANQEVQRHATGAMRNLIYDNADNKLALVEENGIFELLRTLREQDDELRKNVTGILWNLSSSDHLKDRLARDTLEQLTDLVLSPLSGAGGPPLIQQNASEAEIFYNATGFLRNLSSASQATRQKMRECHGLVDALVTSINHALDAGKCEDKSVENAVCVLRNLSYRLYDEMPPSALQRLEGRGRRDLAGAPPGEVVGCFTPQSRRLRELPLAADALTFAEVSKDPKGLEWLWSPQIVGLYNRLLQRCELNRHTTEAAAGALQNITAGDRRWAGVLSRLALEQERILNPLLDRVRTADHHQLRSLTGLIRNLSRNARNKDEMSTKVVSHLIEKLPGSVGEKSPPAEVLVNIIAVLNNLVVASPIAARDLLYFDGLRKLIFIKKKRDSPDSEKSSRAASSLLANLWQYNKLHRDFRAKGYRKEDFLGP
B5: Catenin alpha-3 (Homo sapiens), Q9UI47-1 (parent)
chain: B1 chain
partner: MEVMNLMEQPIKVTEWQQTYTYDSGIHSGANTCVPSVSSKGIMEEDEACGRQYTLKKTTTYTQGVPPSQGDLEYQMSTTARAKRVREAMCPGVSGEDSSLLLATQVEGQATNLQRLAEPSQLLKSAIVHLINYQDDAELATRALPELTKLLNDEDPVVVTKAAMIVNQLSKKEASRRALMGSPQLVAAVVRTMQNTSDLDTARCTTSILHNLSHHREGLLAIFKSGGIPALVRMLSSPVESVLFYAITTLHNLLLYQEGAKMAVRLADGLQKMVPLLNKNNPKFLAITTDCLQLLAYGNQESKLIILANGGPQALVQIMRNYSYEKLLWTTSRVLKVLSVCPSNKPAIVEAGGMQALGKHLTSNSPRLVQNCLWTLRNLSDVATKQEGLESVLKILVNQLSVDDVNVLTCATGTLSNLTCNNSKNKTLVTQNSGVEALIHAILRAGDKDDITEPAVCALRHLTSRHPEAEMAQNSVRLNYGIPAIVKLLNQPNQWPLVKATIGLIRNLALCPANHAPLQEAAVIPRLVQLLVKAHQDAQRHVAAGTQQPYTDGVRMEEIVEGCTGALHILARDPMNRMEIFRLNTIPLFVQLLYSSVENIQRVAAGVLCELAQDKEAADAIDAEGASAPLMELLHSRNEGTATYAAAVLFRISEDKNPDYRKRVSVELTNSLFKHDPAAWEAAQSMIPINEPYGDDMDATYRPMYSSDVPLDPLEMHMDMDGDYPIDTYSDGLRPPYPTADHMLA

The variants in the first test derive from B1. As to conditions: with PKP2, Q99959-2.
Turning to V94D, the “effect of a mutation on the interaction” value was “with no effect”.

In the next test the parent is B2. As to conditions: with ctnb1_rat Ctnnb1, Q9WU82.
V94D: the “effect of a mutation on the interaction” value was “with no effect”.

The variants in the next test derive from B3. Particulars: with ctnb1_human CTNNB1, P35222.
V94D: the “effect of a mutation on the interaction” value is listed as “disrupting interaction strength”.

In a further test the parent is B3. As to conditions: with ctnb1_human CTNNB1, P35222. The source holds these as a separate data set.
Regarding V94D, the “effect of a mutation on the interaction” value is “decreasing interaction strength”.

A further test covers variants of B3. As to conditions: with ctnb1_mouse Ctnnb1, Q02248.
For the variant V94D, the “effect of a mutation on the interaction” value is reported as “disrupting interaction strength”.

Another test covers variants of B4. Particulars: with pkp3_human PKP3, Q9Y446.
For V94D, the “effect of a mutation on the interaction” value is reported as “with no effect”.

In another test the parent is B5. As to conditions: with plak_human JUP.
V94D: the “effect of a mutation on the interaction” value is listed as “disrupting interaction strength”.

(Values after IntAct's records for PubMed 23136403.)
